Results published in article PMC11234873 (Chemical Science, 2024).

Assay: High-throughput protein phase separation
Type: physicochemical
Conditions: 25 μM Hsp90α; 96 LLPS-inducing conditions, sum of averaged grades of 15 subzones

## Hsp90α: full-length human Hsp90α (UniProt P07900), N-terminal 6×-His tag, expressed in E. coli
  phase separation score (PPS score): 3.1
